Experimental data taken from patent US20090130123A1 (published 2009).

Experiments:
[1] = target: T1, Recombinant WNV-E protein ectodomain (West Nile virus, UniProt Q9Q6P4 291-700); assay: SPR (Biacore 3000); scFv on NTA chip via His tag, rWNV-E in solution
T1 construct: extracellular domain; also called rWNV-E; WNE
T1 sequence (looked up): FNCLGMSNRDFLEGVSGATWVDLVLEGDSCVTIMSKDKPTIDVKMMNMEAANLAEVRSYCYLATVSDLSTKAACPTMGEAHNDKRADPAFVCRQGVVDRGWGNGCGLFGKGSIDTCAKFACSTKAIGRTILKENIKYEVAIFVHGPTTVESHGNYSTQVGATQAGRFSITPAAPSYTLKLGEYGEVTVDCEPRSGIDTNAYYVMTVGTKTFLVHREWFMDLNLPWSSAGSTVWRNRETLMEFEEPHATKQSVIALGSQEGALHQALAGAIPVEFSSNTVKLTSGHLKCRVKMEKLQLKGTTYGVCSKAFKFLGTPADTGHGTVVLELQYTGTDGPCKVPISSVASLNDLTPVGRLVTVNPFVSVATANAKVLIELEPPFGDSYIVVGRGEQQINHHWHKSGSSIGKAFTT

[2] = target: T1, Recombinant WNV-E protein ectodomain; assay: ELISA; plate coated with rWNV-E (1 ug/ml), purified His6-tagged scFv, anti-His6-HRP, OD450

B1: scFv 10 (scFv, not shown: small tags and cut ends)
scFv: MAQVQLVQSGAEVKKPGSSVKVSCKASGYTFSGYSTHWLRQVPGQGLEWIGWDNPSSGDTTYAENFRGRVTLTRDTSITTDYLEVRGLRSDDTAVYYCARGGDDYSFDHWGQGTLVTVSSSGGGSGGGGSGGGGSQTVVTQEPSFSVSPGGTITLTCGLSSGSVFTSYYPSWYQQTPGQAPRTLIYSTNTRSSGVPDRFSGSILGNKAALTITGAQADDESDYYCVLYMGSGIGVFGTGTKVTVLGQPKAAPSAAAEQKLISEEDL
notes: also called 10 scFv; antibody 10
With B1 the Ka [1] was 2.64e+07 M⁻¹, the Kd [1] was 37.8 nM and the koff [1] was 0.0212 s⁻¹. For the same binder, the kon [1] was 561000 M⁻¹ s⁻¹ and the “EC50 (read off the curve)” value [2] was roughly 0.2 µg/mL.
